Assay results taken from a protein production outcome set (Wang et al. 2014).

Experiment: label from the status in PepcDB records

Row | Sequence | protein production
1 | MTQRRATRRRFLMGCSAIASVGLAGCTGGDESTATDSTPSPTDDGDAEPTTTTDEPPATDTATATPDQEAVETLVSVGGDRVPENMALGPDGGLYFGITAGEVRRVPAAETGATGLSLEDTEQIATLPGAIGVEAAPDGTVYVAVATQDDQAGVWEIPLDGDAAQLVEMGGFPNDIHYDADQERLLVTESQNGVVYAVTTDGERSTWLDDDRLETESFGANGITRDADGDIFVAVTRAPEETGRLLRVPVESDGAAGEPSMFFEGGAIFGADGITSRDGDIYVAANSQNRVVRVTADGTTDVVATADNGLVFPSDVLFRTGDQQESLFICNFANQSPEDGAILRTSVPR | failed
2 | LEVLVKTLDSQTRTFIVGAQMNVKEFKEHIAASVSIPSEKQRLIYQGRVLQDDKKLQEYNVGGKVIHLVERAP | not failed
3 | MVTPFPEVSEWLCIGQIVGAHGLRGEVKVKPFSDFPERFTVPGCRWLRSPRQPQPYAVTLLRGRFLPRAEQFVVTFAEISDRTAAEALKGAEILVPASDRPPLAANEYHLMDLIGLAVYHQGERVGEVVGLVNAGNDLLEVQLLDPAPKAPQSVYIPFVPAIVPVVDLAARRIEIDPPLGLLPLEHHHHHH | failed
4 | MNVWLLGRGELRRRHDDVLQLERAFLTDRTGLHFVNARSSEDLLALAESRRAEQQWPVLDAEWISPVGTDTCDDLVWQNLESTLDGRPDTFYSTAGFEAGNTLSGTGELAPGEAFLAYRFWRPVRVYAVQLRAFQADFHPGRPVYPFQVARVGVGCSLQAGMSLSYGADASAPGTSCNYRCFCTTEQQTLVFDDPMVGVYLVICLKGFPQQQLTDRLHYAAVSGIRVFGEPISSPALENELSCLISRGFILDGRDAARWLDLRSAQEHAAPMHIPEDEVI | not failed
5 | MAVWLKLSLIVLCGCLSCWVGSVWAQPPLPGFAALSAGQYPLADRQLSQAIAHGKATAALYGNRCWVRLSLERYEEAIKDCSVALDLQPHEPETWLNRGLAYYRQGQSQAAIADFDQLLQQSPTDYRAYYNRGLAYLDLAQPEQAIADFQQALERLPATEIGAAVDLHTDRCMGELHRAQPGPAVSACSQALELQPSAARARYLRALAYWQLHQPQAAIADLRQACDAFAQAGATVQLDRARQLLQHWQQQSSLVAQAPRLQSKNWPGAVTYAMDLANCHDRSPLNELEFCCDRAFQQC | failed
6 | MYFLVTTLGVGFYLMKRMEKSEEDYLVAKRGLGAVPVGVTLALTVLGTPHILGVMESAYDIGLPAVWFSFAHAIMLAIVCLFTGRWARKLKVESVPEFLDVIFSNYWLRLMVGAVIAGAIFGICTLETQGLGVFVSILTGTSIEVGIVIGALIGILYVVLSGMKEVAWLNVLNAVILYIGIIAATFVLGSGLQNGWEGVNEFYISNDLAGKLNIFGSWEVFVGFALVNVLATVFFQGISQQGLHAALAAKSPDVLRKAMLIAVPVNGSFAVFAAVMGMAARATPEFAELGAKTATPAMIVSVLPTWASALLLATCLVAVLSSYAITLLAPTTIFVNDIYKAVLKPNASHEELLRLSRILTVLLAVAALIPAVSLPPILAAMMWLFSWLVPVFWFVIFGLFWKRSAPAAIITCLLVWVTINAWTMTPLPEVLGAPGWLHQVYLALIVTLVIGSLLNAVLPGKPGLFREKALAVRG | failed
7 | MAEFPASLLILNGKSTDNLPLREAIMLLREEGMTIHVRVTWEKGDAARYVEEARKFGVATVIAGGGDGTINEVSTALIQCEGDDIPALGILPLGTANDFATSVGIPEALDKALKLAIAGDAIAIDMAQVNKQTCFINMATGGFGTRITTETPEKLKAALGSVSYIIHGLMRMDTLQPDRCEIRGENFHWQGDALVIGIGNGRQAGGGQQLCPNALINDGLLQLRIFTGDEILPALVSTLKSDEDNPNIIEGASSWFDIQAPHDITFNLDGEPLSGQNFHIEILPAALRCRLPPDCPLLR | not failed
8 | MGKRSSNDLPPVEASMARHIIHFTGPINSSTCGNLITTCSRALQQGAELLQLNIATMGGECSYGFTLYNFLRALPVEVHTHNLGTVESMGNILFLAGERRTACSFSKFLFHPFHWTLHGSVDHSRMSEYAMSLDYDLRLYAQIVAERTKGAAEVLDVPRYLMAYPRILAPREALENGMIHEIDEMPIASDATQWSVHA | failed
9 | MSEQNWTDTGRFDNKAAEWDANAIRAALADAVARAIIAHMPVGKPANALEFGCGTGLVTTRIAPHCLQLTAVDSSREMLRMLGEKIAASAIANVTPLHLDFSRPEEAAGLDRDYDFVYSSMTLHHIPDTASFLRELIGHMSPGGALAIADLDAEDGLFHNDATEKVHHGFDRTELQALLESAGFAGVSFMTAHIIEKKNREGNLKNYPVFLVTAVKPKA | failed
10 | MQDSKIPPFSEAKRMKIPTPKQPLTQLPPRIGKKVSNRSKSNQVHAISHQLEMSPNSDSSPGNEYRALRRKYLLLEEDSFALERELKEAEDEVKALEDEKLELLDKLVVMEGLVDP | failed
11 | VEPVPDTHLRGITCLDHENEKVNMYCVSDDQLICALCKLVGRHRDHQVASLNDRFEKLKQTLEMNLTNLVK | not failed
12 | MNLLYVVLIGQILLFLIGAIYAMRQTKRTKDNMPLPLAIRLILSFSLTGSAIWIWLQDPSVEYSTWVALGMTLSTVGDLFMAGLIPIGHRLIGGMVTFALAHCFYVKAFLQTGISWNGFWIGLLVYGLFLIVGWFFFIRNDKQDKLFTIGALIYGLWVGGMACFAFALYYENTGIWWIPAFGGLLFVISDFIIGVTDIGGRKLKYEPLWIWFTYVAAQMCIVYVGL | failed
13 | PLLDSFKVDHTKMNAPAVRIAKTMLTPKGDNITVFDLRFCIPNKEILSPKGIHTLEHLFAGFMRDHLNGDSIEIIDISPMGCRTGFYMSLIGTPNEQKVSEAWLASMQDVLGVQDQASIPELNIYQCGSYTEHSLEDAHEIAKNVIARGIGVNKNEDLSLDNSLLK | not failed
14 | MVKIEVAKPINFNRLITSKEAEVVSMRILNQPNSYISLFSLAKDEEITAEAMLGNRYYYCFNGNGEIFIENNKKTISNGDFLEITANHNYSIEARDNLKLIEIGEKIGDGNMENKTLKMLESASAFNLAEVVEYQEGKIVSKNLVAKPNLVMTIMSFWKGESLDPHKAPGDALVTVLDGEGKYYVDGKPFIVKKGESAVLPANIPHAVEAETENFKMLLILVKE | not failed
15 | MTADSQTCFCVCTMAVTVTNNQAIDLSRAKAQGRAMAKPLTSHRPILAVSLKLGALVLFTSMSALIKVLSADFPAGEMVFFRSLFAIPVIILWLLARGELRQGLIVKKPMGHFWRGVLGTGAMGLTFTGLGLLPLPEVTAIGYATPIFTLILAALMLGETIRLVRIGAVALGLLGVLIMLWPRLGTGASLDQAATIGALCVLAATVARAFVQIHIRQLVQVDHAAAIVFYFSLTATLLSGLTAFFGWVTPTPEQAAILILTGLVGGVAQILVTSSYRFGQASMLAPYDYASMLFAIIIGYIWFDEWPTLVMLAGAMLVIAGNVVVIWRERQLGLERGKARSVTDPKG | failed
16 | METSRVEEWFERGVEALGHDQVYLARSCFEHVARVNQHPAASSYLALCQAKTRGKFSDAIALARESIAREPHNPLLYQNLGRIYQLAGMRMDAVEVLREGVRRGAGEEAVAELNRIGTRKQPPFRRLHRNHPLNKYVGKLLARLRLR | failed
17 | MDAEAAKMIGAGLAAIGMIGSGIGVGNIWANLIATVGRNPAAKSTVELYGWIGFAVTEAIALFALVVALILLFAA | failed
